Tests used:
[1] = biological target: T1, Human TROP2 Protein, His Tag (Acro Biosystems) (human, UniProt P09758 27-274); assay: BLI (Octet) [2/2]
T1 construct: not shown: His tag
T1 sequence (looked up): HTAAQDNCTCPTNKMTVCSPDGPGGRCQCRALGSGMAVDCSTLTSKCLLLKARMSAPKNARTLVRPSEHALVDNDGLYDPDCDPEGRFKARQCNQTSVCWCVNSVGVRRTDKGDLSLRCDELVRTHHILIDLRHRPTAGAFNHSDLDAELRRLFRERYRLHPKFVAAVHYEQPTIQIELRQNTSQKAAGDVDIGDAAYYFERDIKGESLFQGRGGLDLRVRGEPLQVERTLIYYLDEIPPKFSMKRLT

[2] = biological target: T2, Human TROP2 Protein, His Tag (Acro Biosystems) (human, UniProt P09758 27-274); assay: BLI (Octet) [1/2]
T2 construct: also called TACSTD2; not shown: His tag
T2 sequence (looked up): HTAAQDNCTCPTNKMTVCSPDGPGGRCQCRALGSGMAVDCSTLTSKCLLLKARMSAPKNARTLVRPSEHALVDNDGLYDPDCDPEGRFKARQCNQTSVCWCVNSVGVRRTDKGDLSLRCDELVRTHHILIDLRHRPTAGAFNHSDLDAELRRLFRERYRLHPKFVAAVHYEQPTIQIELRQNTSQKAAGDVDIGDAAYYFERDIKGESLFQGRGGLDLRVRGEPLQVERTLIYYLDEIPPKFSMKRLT

[3] = biological target: T3, Human TROP2 Protein, His Tag (Acro Biosystems) (human, UniProt P09758 27-274); assay: Octet BLI, IgG on anti-human Fc sensor, 50 nM TROP2-His; 1 = pH dependent
T3 construct: not shown: His tag
T3 sequence (looked up): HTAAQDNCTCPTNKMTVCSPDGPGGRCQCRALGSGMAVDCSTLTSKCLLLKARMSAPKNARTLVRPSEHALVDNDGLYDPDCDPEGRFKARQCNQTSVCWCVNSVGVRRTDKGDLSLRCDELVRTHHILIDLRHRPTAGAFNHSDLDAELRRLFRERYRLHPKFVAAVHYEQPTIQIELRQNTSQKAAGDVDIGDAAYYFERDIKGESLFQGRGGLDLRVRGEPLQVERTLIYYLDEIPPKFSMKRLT

[4] = biological target: T3, Human TROP2 Protein, His Tag (Acro …); assay: Octet BLI, IgG on anti-human Fc sensor, 50 nM TROP2-His; 2 = No change vs parent
[5] = biological target: T3, Human TROP2 Protein, His Tag (Acro …); assay: BLI (Octet)
[6] = biological target: TROP2 on TROP2-positive NCI-H1975 cells (human) (UniProt P09758); assay: cell-based or functional assay; conditions: scale: % greater cytotoxicity compared to WT datopotamab
[7] = biological target: T4, Human TROP2 Protein, His Tag (Acro Biosystems) (human, UniProt P09758 27-274); assay: BLI (Octet) [1/2]
T4 construct: Bought antigen used at 50 nM in the Octet screen; also called TACSTD2; not shown: His tag
T4 sequence (looked up): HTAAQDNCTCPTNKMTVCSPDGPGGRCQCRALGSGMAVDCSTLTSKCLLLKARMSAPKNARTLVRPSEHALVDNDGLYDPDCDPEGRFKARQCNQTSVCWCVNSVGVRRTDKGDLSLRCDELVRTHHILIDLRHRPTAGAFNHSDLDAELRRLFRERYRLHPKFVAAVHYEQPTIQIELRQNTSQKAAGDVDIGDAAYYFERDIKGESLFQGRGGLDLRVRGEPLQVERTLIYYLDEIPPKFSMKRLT
Outline: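 Antibody variants from day-4 expression supernatants, diluted in 1×PBST pH 7.4 by expression level, captured on anti-human Fc tips. Association with 50 nM human TROP2-His in PBST pH 7.4 for 120 sec; dissociation in PBST pH 7.4 or pH 5.4 for 300 sec. Curves examined for koff at each pH versus parent antibody.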

[8] = biological target: T4, Human TROP2 Protein, His Tag (Acro …); assay: Octet BLI, IgG on anti-human Fc sensor, 50 nM TROP2; 1 = pH dependent

B1: MYT13257 (antibody, V domains shown)
VH: QVQLVQSGAEVKKPGASVKVSCKASGYTFTTAGMQWVRQAPGQGLEWMGWINTHSGVPKYAEDFKGRVTISADTSTSTAYLQLSSLKSEDTAVYYCAHSGFGSSYWYFDVWGQGTLVTVSS
VL: DIQMTQSPSSLSASVGDRVTITCKASQDHSTAVAWYQQKPGKAPKLLIYSASYRYTGVPSRFSGSGSGTDFTLTISSLQPEDFAVYYCQQHYITPLTFGQGTKLEIK
notes: Full-length IgG from Expi293 supernatant; also called datopotamab heavy chain and light chain pairing variant
B1: binds [1].

B2: MYT13250 (antibody, V domains shown)
VH: QVQLQQSGSELKKPGASVKVSCKASGYTFTNYGMNWVKQAPGQGLKWMGWINTYTGEPTHTDDFKGRFAFSLDTSVSTAYLQISSLKADDTAVYFCARGGFGSSYWYFDVWGQGSLVTVSS
VL: DIQLTQSPSSLSASVGDRVSITCKASQDVSIAVAWYQQKPGKAPKLLIYSAHYRYTGVPDRFSGSGSGTDFTLTISSLQPEDFAVYYCQQHYHTPLTFGAGTKVEIK
notes: Sacituzumab HC-LC pairing variant
B2: binds [2].

B3: MYT12317 (antibody, V domains shown)
VH: QVQLQQSGSELKKPGASVKVSCKASGYTFTNYGMNWVKQAPGQGLKWMGWINTYTGEPTYTDHFHGRFAFSLDTSVSTAYLQISSLKADDTAVYFCARGGFGSSYWYFDVWGQGSLVTVSS
VL: DIQLTQSPSSLSASVGDRVSITCKASQDVSIAVAWYQQKPGKAPKLLIYSASYRYTGVPDRFSGSGSGTDFTLTISSLQPEDFAVYYCQQHYITPLTFGAGTKVEIK
notes: sacituzumab VH 63, 65 -> H
B3: binds [3].

B4: MYT12296 (antibody, V domains shown)
VH: QVQLQQSGSELKKPGASVKVSCKASGYTFTNHGMNWVKQAPGQGLKWMGWINTYTGEPTYTHDFKGRFAFSLDTSVSTAYLQISSLKADDTAVYFCARGGFGSSYWYFDVWGQGSLVTVSS
VL: DIQLTQSPSSLSASVGDRVSITCKASQDVSIAVAWYQQKPGKAPKLLIYSASYRYTGVPDRFSGSGSGTDFTLTISSLQPEDFAVYYCQQHYITPLTFGAGTKVEIK
notes: sacituzumab VH 32, 62 -> H
B4: binds [4].

B5: MYT12388 (antibody, V domains shown)
VH: QVQLVQSGAEVKKPGASVKVSCKASGYTFTTAGMQWVRQAPGQGLEWMGWINTHSGVPKYAEDFKGRVTISADTSTSTAYLQLSSLKSEDTAVYYCARSGFGSSYWYFDVWGQGTLVTVSS
VL: DIQMTQSPSSLSASVGDRVTITCKASQHVSTAVAWYQQKPGKAPKLLIYSHSYRYTGVPSRFSGSGSGTDFTLTISSLQPEDFAVYYCQQHYITPLTFGQGTKLEIK
notes: datopotamab VL 28, 51 substituted
B5: binds [5].

B6: MYT11741 (antibody, V domains shown)
VH: QVQLQESGPGLVKPSETLSLTCTVSGGSISSYGVHWIRQPPGKGLEWIGVIWTSGVTDYNSALMGRVTISVDTSKNQFSLKLSSVTAADTAVYYCARDGDYDRYTHDYWGQGTLVTVSS
VL: DIVMTQSPDSLAVSLGERATINCRASKSVSTSGYSYMHWYQQKPGQPPKLLIYLASNLESGVPDRFSGSGSGTDFTLTISSLQAEDVAVYYCQHSRELPYTFGQGTKLEIK
B6 was tested, and the cytotoxicity on TROP2-positive NCI-H1975 cells (antibody complexed to secondary antibody-MMAF, cell titer glow assay) [6] was 30 and the binding result [7] was “binds”.

B7: MYT11773 (antibody, V domains shown)
VH: QVQLQESGPGLVKPSETLSLTCTVSGGSISSYGVHWIRQPPGKGLEWIGVIWTSGVTDYNSALMGRVTISVDTSKNQFSLKLSSVTAADTAVYYCARDGDYDRYTMDYWGQGTLVTVSS
VL: DIVMTQSPDSLAVSLGERATINCRASKSVSTSGYSYMHWYQQKPGQPPKLLIYLASNLESGVPDRFSGSGSGTDFTLTISSLQAEDVAVYYCQHSRELPHTFGQGTKLEIK
notes: hu7E6SVG variant, His at LCV position 100 (L3 08); screened as IgG in Expi293 supernatant
B7: binds [8].

— patent publication US20260274985A1 (MYTHIC THERAPEUTICS, published 2026)
